Measured values taken from patent publication US9713649 (CLEVELAND CLINIC FOUNDATION, dated 2017).
Primed or numbered codes have the meaning given here. Where no end group is shown, it is not given here. [ ]: non-standard residue; d: D form. The star is where a group is joined. MCC = 4-(N-maleimidomethyl)cyclohexane-1-carbonyl, from SMCC, O=C1C=CC(=O)N1C[C@H]1CC[C@H](C(=O)*)CC1; NOTA(2S-Bn(4-NHCS)) = O=C(O)CN1CCN(CC(=O)O)C[C@H](Cc2ccc(NC(=S)*)cc2)N(CC(=O)O)CC1; Amc = N-aminomethyl cyclohexanoic acid; ZJ = urea ligand Cys-C(O)-Glu; Ahx = NCCCCCC(=O)O; E′E = Glu-urea-Glu

B1: E′EAmc-Ahx-dEdEdEYK(Bn-NOTA)-NH2 (Compound 4) (peptide)
peptide: {E′E-Amc}-[Ahx][dE][dE][dE]YK(NOTA(2S-Bn(4-NHCS)))-NH2
notes: Tested unlabelled; also called E′EAmc-Ahx-dGlu-dGlu-dGlu-Tyr-Lys(Bn-NOTA)-NH2
B2: ZJ-MCC-Ahx-YYYG (Compound 2) (peptide)
peptide: {ZJ-MCC}-[Ahx]YYYG
notes: Synthetic urea-ligand peptide conjugate, unlabelled
B3: E′E-Ahx-EEEYK(Bn-NOTA)-NH2 (Compound 5) (peptide)
peptide: {E′E}-[Ahx]EEEYK(NOTA(2S-Bn(4-NHCS)))-NH2
notes: Tested unlabelled; also called E′E-Ahx-Glu-Glu-Glu-Tyr-Lys(Bn-NOTA)-NH2

Target: T1, Prostate specific membrane antigen (PSMA) (UniProt Q04609 1-750, limits assumed)
T1 construct: whole, on cells
T1 sequence (Q04609 whole entry): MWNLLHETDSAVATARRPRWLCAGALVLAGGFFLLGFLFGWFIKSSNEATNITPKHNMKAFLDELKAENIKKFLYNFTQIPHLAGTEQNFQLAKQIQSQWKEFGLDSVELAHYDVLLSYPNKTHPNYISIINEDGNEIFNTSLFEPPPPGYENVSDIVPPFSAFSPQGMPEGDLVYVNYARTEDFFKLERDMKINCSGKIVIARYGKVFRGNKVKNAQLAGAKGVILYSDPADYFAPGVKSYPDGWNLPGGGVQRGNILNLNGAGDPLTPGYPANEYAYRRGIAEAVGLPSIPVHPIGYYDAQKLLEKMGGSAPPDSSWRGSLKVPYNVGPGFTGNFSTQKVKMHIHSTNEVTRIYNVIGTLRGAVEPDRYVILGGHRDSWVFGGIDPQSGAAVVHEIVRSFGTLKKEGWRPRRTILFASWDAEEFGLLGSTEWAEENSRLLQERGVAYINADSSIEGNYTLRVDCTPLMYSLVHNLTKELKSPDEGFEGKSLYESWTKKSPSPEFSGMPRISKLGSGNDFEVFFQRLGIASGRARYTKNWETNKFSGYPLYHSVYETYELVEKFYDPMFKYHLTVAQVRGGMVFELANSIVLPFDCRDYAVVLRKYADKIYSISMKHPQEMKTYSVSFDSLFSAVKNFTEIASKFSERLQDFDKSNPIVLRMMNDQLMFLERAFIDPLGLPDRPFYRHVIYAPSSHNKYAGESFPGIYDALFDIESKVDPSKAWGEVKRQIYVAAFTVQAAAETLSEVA
Experiment: competitive binding on LNCaP or PC3-PIP cells; displacement of 12 nM N-[N-[(S)-1,3-dicarboxypropyl]carbamoyl]-S-[3H]-methyl-L-cysteine, scintillation counting
Protocol: Briefly, LNCaP or PC3-PIP cells (5×10^5) were incubated with different concentrations of ligands in the presence of 12 nM N—[N—[(S)-1,3-dicarboxypropyl]carbamoyl]-S-[^3H]-methyl-L-cysteine in a total volume of 300 µL for 1 hour at 37° C. The mixture was centrifuged at 3,000 g for 5 min at 4° C., then washed three times with 500 µL of cold PBS. Finally, 4 mL of EcoLume™ cocktail (MP Biomedicals) was added, and radioactivity was counted by scintillation counter. The concentration required to inhibit 50% of binding was determined (IC$50$) by GraphPad Prism 3.0.
Binding affinities of new compounds to PSMA.

IC50 | Binder
4.6 nM | B1
2.5 nM | B2
7 nM | {E′E-Amc}-[Ahx][dE][dE][dE]GYGGGC-NH2 [E′EAmc-Ahx-dEdEdEGYGGGC-NH2 (Compound 3)]
4.3 nM | B3
